Experimental data taken from PMC4569481.

Biological target: Dihydrolipoamide dehydrogenase (Lpd) of P. aeruginosa, recombinant full length (Lpd^1-478) (P. aeruginosa strain PAO1) (UniProt Q9I3D1)
Test: ELISA; Lpd (5 μg/ml) coated on microtiter plates overnight at 4°C; vitronectin (0.01–12.5 μg/ml), recombinant vitronectin constructs (5 μg/ml) or clusterin (0.01–20 μg/ml) added 1 h at RT; detected with antibodies, absorbance at 492 nm

Sequence of Dihydrolipoamide dehydrogenase (Lpd) of P. aeruginosa, recombinant full length (Lpd^1-478) (P. aeruginosa strain PAO1) (Q9I3D1 whole entry): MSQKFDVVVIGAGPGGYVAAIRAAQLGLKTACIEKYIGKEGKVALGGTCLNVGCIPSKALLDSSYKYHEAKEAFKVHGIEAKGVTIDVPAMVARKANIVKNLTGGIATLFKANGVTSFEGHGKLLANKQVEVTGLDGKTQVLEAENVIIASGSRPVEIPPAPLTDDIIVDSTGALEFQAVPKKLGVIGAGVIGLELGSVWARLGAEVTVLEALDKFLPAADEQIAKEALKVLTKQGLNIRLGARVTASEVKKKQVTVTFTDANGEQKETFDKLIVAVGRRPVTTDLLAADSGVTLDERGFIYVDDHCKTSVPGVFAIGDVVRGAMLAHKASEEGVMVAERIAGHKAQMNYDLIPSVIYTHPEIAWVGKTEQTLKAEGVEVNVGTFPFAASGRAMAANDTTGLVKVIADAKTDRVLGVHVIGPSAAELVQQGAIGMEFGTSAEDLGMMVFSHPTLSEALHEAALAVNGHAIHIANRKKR

## vitronectin^80-353 (domain or fragment)
  percent reduction of binding (ELISA signal; reference not named): 70%
